From PMC9098913, “In vitro reconstitution of Escherichia coli divisome activation” (Nature Communications, 2022)
Like-named read-outs stand apart in the source and are kept apart here.

Tests used:
[1] = Membrane off-binding rate (koff) of FtsA from FRAP
Description: We could also use the data from these bleaching experiments to quantify the membrane-binding kinetics and diffusion of membrane-bound proteins by analysing the change of the fluorescence profile during recovery.
Equimolar concentrations of Cy3- and Cy5-labelled FtsA, supplemented with 20% unlabelled FtsA were used to study FRET and FRAP. Five pre-bleach frames were acquired, followed by acceptor photobleaching of a rectangular ROI with 40% 641 nm laser power and a dwell size of 1 µs/pixel, 75% overlapping lines. The recovery of the signal or the increase in donor intensity were measured with either two frames or one frame per second.
Bleaching the acceptor dye leads to an increase in the donor intensity, which can be used to quantify the Foerster Resonance energy transfer (FRET)[48]. FRET efficiency was quantified with E%=Ipost/Ipost+Ipre⋅100 , where Ipost is the intensity of the […] and Ipre is the […]. […] To extract the contribution of both processes, we adjusted a routine recently published by Gerganova et al.[33]. In short, the code provides the contribution of both modes of recovery by analysing the shape of the fluorescence recovery profile. […] Contribution of diffusion leads to a change of the slope of the outer borders of the bleached region (S4h right). Thus, by measuring the change of the slope of the border recovery, diffusion and simple on/off binding can be distinguished. We developed “FRAPdiff”, a graphical user interface, which uses the original fit routine by David Rutkowski. It can be used directly on.tiff movies with annotated bleach regions as ImageJ ROIs. In addition, we added optional bleach correction, user selectable projection axis (x or y), and optional mirroring of the recovery profiles, if bleaching was not symmetric. The original fit routine for estimating the recovery and diffusion dynamics can be found at https://github.com/davidmrutkowski/1DReflectingDiffusion. FRAPdiff is available at 10.5281/zenodo.6400639[49] under the GPLv3 open-source license.

FtsZ [2] = conditions: His-tagged FtsA
Protocol: (§1) Co-treadmilling of FtsA with FtsZ relies on the dynamic exchange of FtsA on the membrane. […] To investigate the respective contributions of membrane binding kinetics and FtsA self-interaction on the colocalization dynamics with FtsZ, we wanted to create variants of the two FtsA proteins that are permanently attached to the membrane. […] Accordingly, in these experiments the proteins only differ in their tendency to form oligomers.
(§2) To study colocalization of His-tagged variants of FtsA, 0.5–1 µM of Cy5 labelled His-tagged FtsAs were added to the chamber, incubated for 20 min and washed 6x with reaction buffer. […] To control the density of membrane-bound FtsA, SUVs without and with Tris-NTA lipids were mixed to obtain the respective Tris-NTA concentrations. To perform FRET/FRAP experiments, equimolar concentrations of Cy3 and Cy5 labelled His-tagged FtsAs (total 0.5–1 µM) or His-SUMO-Cys were added to a chamber and treated as above. […] FRAP experiments were performed as described before.
Time-lapse videos were first intensity-corrected and contrast-enhanced to avoid bleaching effects and simplify subsequent analysis. To remove contributions of X–Y drift, the videos were processed with the Linear Stack Alignment with SIFT plugin. Proper alignment was checked with the 3TP align plugin (J. A. Parker; Beth Israel Deaconess Medical Center, Boston). Subsequently, regions of interest (ROIs) in the center of the stacks were chosen for colocalization analysis. The Pearson’s correlation coefficient (PCC) was quantified with the Image CorrelationJ 1o plugin. To extract information about the relative ratio of FtsZ/FtsA molecules (slope of linear regression), we also used the Image CorrelationJ 1o plugin. As an output, the plugin provides a scatterplot of FtsZ vs FtsA intensities, to which we fitted a linear slope y=k⋅x+d , where k is the slope and d the offset. The slope was used as an estimate for the ratio of FtsA molecules below FtsZ filaments.

FtsZ [3] = conditions: His-tagged FtsA; remark: listed apart in the source
Protocol: as §1, §2
Treadmilling dynamics, were quantified using an automated image analysis protocol previously developed by our group. To visualize colocalization of the co-treadmilling FtsZ & FtsA filaments, we used dual-colour videos obtained at an acquisition rate of one frame per 2 s. The two channels were aligned using FIJI’s 3TP align plugin. Both channels were then subjected to the image subtraction protocol and colocalization was measured as described above.

[4] = 0.60% Tris NTA, Exp. 2 (statistical analysis)
[5] = 0.80% Tris NTA, Exp. 1 (statistical analysis)
[6] = 0.80% Tris NTA, Exp. 2 (statistical analysis)
[7] = 0.80% Tris NTA, Exp. 3 (statistical analysis)
[8] = 1.00% Tris NTA, Exp. 1 (statistical analysis)
[9] = 1.00% Tris NTA, Exp. 2 (statistical analysis)
[10] = 1.00% Tris NTA, Exp. 3 (statistical analysis)
[11] = 2.00% Tris NTA, Exp. 1 (statistical analysis)
[12] = 2.00% Tris NTA, Exp. 2 (statistical analysis)
[13] = 2.00% Tris NTA, Exp. 3 (statistical analysis)
[14] = […] Tris NTA, Exp. 1 (statistical analysis)
[15] = […] Tris NTA, Exp. 3 (statistical analysis)

B1: FtsA R286W (protein)
chain: MIKATDRKLVVGLEIGTAKVAALVGEVLPDGMVNIIGVGSCPSRGMDKGGVNDLESVVKCVQRAIDQAELMADCQISSVYLALSGKHISCQNEIGMVPISEEEVTQEDVENVVHTAKSVRVRDEHRVLHVIPQEYAIDYQEGIKNPVGLSGVRMQAKVHLITCHNDMAKNIVKAVERCGLKVDQLIFAGLASSYSVLTEDERELGVCVVDIGGGTMDIAVYTGGALRHTKVIPYAGNVVTSDIAYAFGTPPSDAEAIKVRHGCALGSIVGKDESVEVPSVGGRPPWSLQRQTLAEVIEPRYTELLNLVNEEILQLQEKLRQQGVKHHLAAGIVLTGGAAQIEGLAACAQRVFHTQVRIGAPLNITGLTDYAQEPYYSTAVGLLHYGKESHLNGEAEVEKRVTASVGSWIKRLNSWLRKEF
modifications: Cy3 or Cy5 at the N-terminus in the labelled form (labelled CLEPTGG peptide conjugated to the 5xGly tag by sortagging); unlabelled protein also used; left off: TwinStrep-SUMO, N-terminal, cleaved | 5x
Off binding rate ([1]; 0.4µM, + FtsN, replicate Exp.5): 1.01E-01 | Off binding rate ([1]; 0.4µM, + FtsN, replicate Exp.6): 2.02E-01 | Off binding rate ([1]; 0.4µM, + FtsZ, Mean, n=8): 0.1794 | Off binding rate ([1]; 0.4µM, + FtsZ, replicate Exp.1): 1.34E-01 | Off binding rate ([1]; 0.4µM, + FtsZ, replicate Exp.2): 2.29E-01 | Off binding rate ([1]; 0.4µM, + FtsZ, replicate Exp.3): 1.49E-01 | Off binding rate ([1]; 0.4µM, + FtsZ, replicate Exp.4): 2.39E-01 | Off binding rate ([1]; 0.4µM, + FtsZ, replicate Exp.5): 1.49E-01 | Off binding rate ([1]; 0.4µM, + FtsZ, replicate Exp.6): 1.15E-01 | Off binding rate ([1]; 0.4µM, + FtsZ, replicate Exp.7): 3.30E-01 | Off binding rate ([1]; 0.4µM, + FtsZ, replicate Exp.8): 8.97E-02 | Off binding rate, mean ([1]; 0.8 µM FtsA + FtsN&Z): 0.0945 s | Off binding rate, mean ([1]; 0.8 µM FtsA + FtsN): 0.188 s | Off binding rate, mean ([1]; 0.8 µM FtsA + FtsZ): 0.161 s | Off binding rate ([1]; 0.8µM FtsA alone, Mean, n=8): 0.3865 | Off binding rate, mean ([1]; 0.8 µM FtsA alone): 0.386 s | Off binding rate ([1]; 0.8µM FtsA alone, replicate Exp.1): 6.04E-01 | Off binding rate ([1]; 0.8µM FtsA alone, replicate Exp.2): 6.73E-01 | Off binding rate ([1]; 0.8µM FtsA alone, replicate Exp.3): 7.27E-01 | Off binding rate ([1]; 0.8µM FtsA alone, replicate Exp.4): 1.48E-01 | Off binding rate ([1]; 0.8µM FtsA alone, replicate Exp.5): 5.66E-01 | Off binding rate ([1]; 0.8µM FtsA alone, replicate Exp.6): 9.49E-02 | Off binding rate ([1]; 0.8µM FtsA alone, replicate Exp.7): 1.46E-01 | Off binding rate ([1]; 0.8µM FtsA alone, replicate Exp.8): 1.33E-01 | Off binding rate ([1]; 0.8µM, + FtsN&Z, Mean, n=4): 0.0945 | Off binding rate ([1]; 0.8µM, + FtsN&Z, replicate Exp.1): 3.85E-02 | Off binding rate ([1]; 0.8µM, + FtsN&Z, replicate Exp.2): 2.22E-01 | Off binding rate ([1]; 0.8µM, + FtsN&Z, replicate Exp.3): 6.03E-02 | Off binding rate ([1]; 0.8µM, + FtsN&Z, replicate Exp.4): 5.77E-02 | Off binding rate ([1]; 0.8µM, + FtsN, Mean, n=3): 0.1881 | Off binding rate ([1]; 0.8µM, + FtsN, replicate Exp.1): 7.35E-02 | Off binding rate ([1]; 0.8µM, + FtsN, replicate Exp.2): 3.72E-01 | Off binding rate ([1]; 0.8µM, + FtsN, replicate Exp.3): 1.19E-01 | Off binding rate ([1]; 0.8µM, + FtsZ, Mean, n=8): 0.1609 | Off binding rate ([1]; 0.8µM, + FtsZ, replicate Exp.1): 2.88E-01 | Off binding rate ([1]; 0.8µM, + FtsZ, replicate Exp.2): 1.14E-01 | Off binding rate ([1]; 0.8µM, + FtsZ, replicate Exp.3): 2.71E-01 | Off binding rate ([1]; 0.8µM, + FtsZ, replicate Exp.4): 1.12E-01 | Off binding rate ([1]; 0.8µM, + FtsZ, replicate Exp.5): 1.44E-01 | Off binding rate ([1]; 0.8µM, + FtsZ, replicate Exp.6): 1.39E-01 | Off binding rate ([1]; 0.8µM, + FtsZ, replicate Exp.7): 1.37E-01 | Off binding rate ([1]; 0.8µM, + FtsZ, replicate Exp.8): 8.23E-02 | Off binding rate ([1]; Fig. S3i/S3j, 0.10 µM FtsA, summary value): 0.326 s⁻¹ | Off binding rate ([1]; Fig. S3i/S3j, 0.20 µM FtsA, summary value): 0.251 s⁻¹ | Off binding rate ([1]; Fig. S3i/S3j, 0.40 µM FtsA, summary value): 0.374 s⁻¹ | Off binding rate ([1]; Fig. S3i/S3j, 0.80 µM FtsA, summary value): 0.386 s⁻¹ | membrane off-rate ([1]; in the presence of FtsZ): around 0.20 s^−1 | PCC (FtsZ [2]; [4]): 0.65 | PCC, Mean (FtsZ [2]; 0.60% Tris NTA, n = 2 (WT), 3 (R286W), sd 0.07, 0.08, p-value 0.39): 0.56 | PCC (FtsZ [2]; [5]): 0.79 | PCC (FtsZ [2]; [6]): 0.63 | PCC (FtsZ [2]; [7]): 0.69 | PCC, Mean (FtsZ [2]; 0.80% Tris NTA, n = 3, 3, sd 0.0141 (WT), 0.0648 (R286W), p-value 0.61): 0.70 | PCC (FtsZ [2]; [8]): 0.78 | PCC (FtsZ [2]; [9]): 0.71 | PCC (FtsZ [2]; [10]): 0.72 | PCC, Mean (FtsZ [2]; 1.00% Tris NTA, n = 4 (WT), 3 (R286W), sd 0.08, 0.0316, p-value 6.25E-02): 0.73 | PCC (FtsZ [2]; [11]): 0.63 | PCC (FtsZ [2]; [12]): 0.53 | PCC (FtsZ [2]; [13]): 0.55 | PCC, Mean (FtsZ [2]; 2.00% Tris NTA, n = 3, 3, sd 0.0143 (WT), 0.04 (R286W), p-value 1.59E-04): 0.57 | PCC (FtsZ [2]; [14]): 0.60 | PCC (FtsZ [2]; […] Tris NTA, Exp. 2 (statistical analysis)): 0.62 | PCC (FtsZ [2]; [15]): 0.65 | PCC, Mean (FtsZ [2]; […] Tris NTA, n = 3, 3, sd 0.06 (WT), 0.02 (R286W), p-value 3.86E-04): 0.63 | Differential PCC (FtsZ [3]; 0.60% Tris NTA, Exp. 1 (statistical analysis)): 0.40 | Differential PCC (FtsZ [3]; [4]): 0.46 | Differential PCC (FtsZ [3]; 0.60% Tris NTA, Exp. 3 (statistical analysis)): 0.54 | Differential PCC, Mean (FtsZ [3]; 0.60% Tris NTA, n = 2 (WT), 3 (R286W), sd 0.02, 0.057, p-value 0.67): 0.47 | Differential PCC (FtsZ [3]; [5]): 0.57 | Differential PCC (FtsZ [3]; [6]): 0.48 | Differential PCC (FtsZ [3]; [7]): 0.66 | Differential PCC, Mean (FtsZ [3]; 0.80% Tris NTA, n = 3, 3, sd 0.05 (WT), 0.0749 (R286W), p-value 0.13): 0.57 | Differential PCC (FtsZ [3]; [8]): 0.60 | Differential PCC (FtsZ [3]; [9]): 0.56 | Differential PCC (FtsZ [3]; [10]): 0.51 | Differential PCC, Mean (FtsZ [3]; 1.00% Tris NTA, n = 3, 3, sd 0.12 (WT), 0.0377 (R286W), p-value 5.89E-02): 0.56 | Differential PCC (FtsZ [3]; [11]): 0.44 | Differential PCC (FtsZ [3]; [12]): 0.34 | Differential PCC (FtsZ [3]; [13]): 0.36 | Differential PCC, Mean (FtsZ [3]; 2.00% Tris NTA, n = 3, 3, sd 0.0469 (WT), 0.04 (R286W), p-value 2.27E-03): 0.38 | Differential PCC (FtsZ [3]; [14]): 0.34 | Differential PCC (FtsZ [3]; [15]): 0.37 | Differential PCC, Mean (FtsZ [3]; […] Tris NTA, n = 3, 3, sd 0.0371 (WT), 0.02 (R286W), p-value 5.70E-04): 0.36
